Data reported in patent US8501695B2, “Tissue kallikrein for the treatment of diseases associated with amyloid protein” (DiaMedica, Inc., priority 2007, dated 2013).

Target: T1, Amyloid beta1-42 (hAPβ42 peptide) (Homo sapiens, UniProt P05067)
T1 construct: Amyloid beta1-42 standard (from β-Amyloid1-42 ELISA, Human kit, Sigma BE0200); purchased Sigma BE0200
Experiment: Direct cleavage of amyloid beta, β-Amyloid1-42 ELISA
Assay type: biochemical
Procedure: Amyloid beta1-42 standard (from β-Amyloid1-42 ELISA, Human kit, Sigma BE0200) was reconstituted into 1.0 μg/mL as per kit instructions. A stock solution of tissue kallikrein (SEQ ID: 1) and approximately 0.5 molar equivalents of Soybean Trypsin Inhibitor (Sigma, T6522) was prepared in PBS and serially diluted in triplicate with a fixed concentration of hAPβ42 peptide at 500 pg/mL. Solutions were incubated for 3 and 18 hours respectively after which time additional protease inhibitors were added (1/100 dilution of protease inhibitor cocktail solution, Sigma P8340). As per kit instructions, 50 μL of the above samples were added and the ELISA plate incubated overnight at 4° C. The remaining steps of the ELISA plate development were followed as per kit instructions and then read using a multiwell ELISA plate reader at 450 nm. Percent cleavage was determined by: 100−[(Ave KLK1−Ave Blank)/(Ave Control−Ave Blank)×100]=% Cleavage Results

T1 sequence (P05067 672-713 limits assumed): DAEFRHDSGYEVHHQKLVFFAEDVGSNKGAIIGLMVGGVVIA

B1: tissue kallikrein: serine protease that cleaves kininogen into kallidin; polypeptide SEQ ID NO:1 (Sus scrofa kallikrein 1), KLK1 from Sigma (protein, listed as Sus scrofa)
chain: MWSLVMRLALSLAGTGAAPPIQSRIIGGRECEKDSHPWQVAIYHYSSFQCGGVLVDPKWVLTAAHCKNDNYQVWLGRHNLFENEVTAQFFGVTADFPHPGFNLSLLKNHTKADGKDYSHDLMLLRLQSPAKITDAVKVLELPTQEPELGSTCQASGWGSIEPGPDDFEFPDEIQCVELTLLQNTFCADAHPDKVTESMLCAGYLPGGKDTCMGDSGGPLICNGMWQGITSWGHTPCGSANKPSIYTKLIFYLDWINDTITENP
modifications: 125I label in one form
Percent Cleavage of Amyloid Beta (KLK1 1 pg/mL, 3 hrs): 0% | Percent Cleavage of Amyloid Beta (KLK1 1 pg/mL, 18 hrs): 0% | Percent Cleavage of Amyloid Beta (KLK1 10 pg/mL, 3 hrs): 0% | Percent Cleavage of Amyloid Beta (KLK1 10 pg/mL, 18 hrs): 15% | Percent Cleavage of Amyloid Beta (KLK1 100 pg/mL, 3 hrs): 0% | Percent Cleavage of Amyloid Beta (KLK1 100 pg/mL, 18 hrs): 19.5% | Percent Cleavage of Amyloid Beta (KLK1 1 ng/mL, 3 hrs): 19.6% | Percent Cleavage of Amyloid Beta (KLK1 1 ng/mL, 18 hrs): 50% | Percent Cleavage of Amyloid Beta (KLK1 10 ng/mL, 3 hrs): 36.6% | Percent Cleavage of Amyloid Beta (KLK1 10 ng/mL, 18 hrs): 88.4% | Percent Cleavage of Amyloid Beta (KLK1 100 ng/mL, 3 hrs): 71.7% | Percent Cleavage of Amyloid Beta (KLK1 100 ng/mL, 18 hrs): 99.8% | Percent Cleavage of Amyloid Beta (KLK1 1 μg/mL, 3 hrs): 92.1% | Percent Cleavage of Amyloid Beta (KLK1 1 μg/mL, 18 hrs): 100%
